Data taken from PMC5827731.

Key:
[1] = target: SURF6-N (N-terminal segment of Surfeit locus protein 6, residues 1-182) (UniProt O75683)
[2] = target: NPM1^mutB2 (Lys and Arg to Ala in the B2-tract) (UniProt P06748)

Sequence of UniProt O75683 (O75683 1-182): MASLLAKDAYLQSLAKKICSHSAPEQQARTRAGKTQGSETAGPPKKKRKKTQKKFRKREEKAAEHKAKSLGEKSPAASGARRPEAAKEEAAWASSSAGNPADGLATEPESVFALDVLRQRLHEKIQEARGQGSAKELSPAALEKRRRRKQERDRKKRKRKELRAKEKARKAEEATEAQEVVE

threshold concentration for heterotypic LLPS with SURF6-N (turbidity, Fig. 2c) [1] [µM]	threshold SURF6-N concentration for heterotypic LLPS, NPM1 construct at 20 µM (turbidity) [2] [µM]	Substance
30	–	NPM1^N188 (NPM1 truncation that lacks the CTD plus the B2-tract) (domain or fragment)
–	60	NPM1^mutB2 (Lys and Arg to Ala in the B2-tract) (from UniProt P06748 1-294) (natural protein)
